Experiment: yeast display, Sf9 membrane polyspecificity reagent, FACS + sequencing; frameworks hold sequencing errors
Summary of the method: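 Galactose induction of a Saccharomyces cerevisiae BJ5465 synthetic nanobody display library ran 36–48 hours. The cells were then stained for 1 hour at 4 °C with 10% biotinylated, detergent-solubilized Sf9 membrane reagent, pulled down on streptavidin microbeads and FACS-sorted into low and high (top ~1%) gates on expression and reagent-binding fluorescence. Labels for polyreactivity follow the gate of origin.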

| Sequence | polyreactivity (PSR sort gate) |
| --- | --- |
| QVQLVESRGGLVQAGGSLRLSCAASGSTFTHYAMGRYRHAPGKERELVAAISWGGGTTRYADSVKGRFTISRDNAKNSVYLQMNSLKPVDTAVYYCAKRVRTGSVGNFNYWGQGTQVSVSS | high polyreactivity |
| QVQLVESGGGLVQAGGSLRLSCAASGSIFDWYAMGWYRQAPGKEGELVAAISSGDSTYYADSVKGRFTISRDNAKNTVYLQMNSLKPEDTAVYYGAAVTKLSGIRYNYWGQGTQVTVSS | low polyreactivity |
| QVQLVESGGGLVQAGGSLRLSCAASGIILYYYAMGWYRQAPGKERELVAAINWSGGSTSYADSVKGRFTISRDNAKNTVYLQMNSLKPEDTAVYYCAARLGSWHYQVWNDKYEYWGQGTQVTVSS | high polyreactivity |
| QVQLVESGGGLVQAGGSLRLSCAASGSTFKYYGMGWYRQAPGKERELVASISSSGTRTYYADSVKGRFTISRDNAKYTVYLQMNSLKPEDTAVYYCAADSYATYFLYDSWGQGTQVTVSS | low polyreactivity |
| QVQLVESGGGLVQAGGSLRLICAASGSTFLVYSMGWYRQEPGKERELVAAISYSGGSTYYADSVKGRFTISRDNSKNTVYLQLNSLKPEDTAVYYCNVEPVDRWYYKYDYWGQGTEVTVSS | low polyreactivity |
| QVQLVESGGGLVHAGGSLRLSCAASGSFFRSYAMGWYRQAPGKEMEWVATISSSTGSTYYADSVKGRFTISRDNAKNTVYLQMNSLKPEDTSVYYCAAVQPVKSCSGYHFWYYWGQGTQVTVSS | high polyreactivity |
| QVQLVESGVGIVQAGGSLRLSCAASGRIISGYAMGWYRHAPGKERELVATISSGGGTNYADSVKGRFTISRDNAKNTVYLQMNSLKPEDTAVYYCNKAWGYWSIRGVTHRYGYWGQGTQVTVSS | high polyreactivity |
| QVQLVESGGGLVQAGGSLRLSCAASGFIFSTYAMGWYRQAPGKERELVAAITNSGGSTYYADSVKGRFTISRDNAKNTVYLQMNSLKPEDTAVYYCARRRSYRDNYWGQGTQVTVSS | high polyreactivity |
| QVQLVESGGGLVQAGGSLRLSCAASGFIFNYNAMGWYRQAPGKERELVAAIRTSSGSTYYADSVKGRFTISRDNAKNTVYLQMNSLKPEDTAVYYCGKTRYSTYSPIYYYWGQGTQVTVSS | high polyreactivity |
| QVQLVESGGGLVQAGGSLRLSCAASGFTFPLNAMGWYRQAPGKERELVAAISGSGGSTYYADSVKGRFTISRDNAKNTVYLQMNSLKPEDTAVYYCAAGIYYWGQGTQVTVSS | low polyreactivity |
| QVQLVESGGGLVQAGGSLRLSCAASGSTFDTNAMGWYRQAPGKELVAAISSAGSTYYADSVKGRFTISRDNAKNTVYLQMNSLKPVATAVYYCAAGNAESPYESLEDDYWGQGTQVTVSS | low polyreactivity |
| QVQLVESGGGLVQAGGSLRLSCAASGRIFTGNAMGWNRQAPGKERELVAAISASGSSTYYADSVKGRFTISRDNAKNTVYLQMNRLKPDDTAVYYCAADGWYGYYYWGQGTQVTVSS | high polyreactivity |
| QVQLVESGGGLVQAGGSLRLSCAASGSIFGVNAMGWYRQAPGKERELVATITWRTGSTYYADSVKGRFTISRDNAKNTVYLQMNSLKPEDTAVYYCAAEDYTEFDYWGQGTQVTVSS | low polyreactivity |
| QVQLVESGGGLVQAGGSLRLSCDASGITFWGYVMGWYRQAPGKERELVAAISSSGGRTYYADSVKGRFTISLDNAKNTVYLQMNSLKPEDTAVYYCAARFLYANRYSVDYDYCGQGTQVTVSS | high polyreactivity |
| QVQLVESGGGLVQAGGSLRLSCAASGFIFDPNAMGWYRQAPGRERELVAAISSSGGRTYYADSVKGRFTISRDNAKNTVYLQMNSLKPEDTAVYYCATDTSVQGQEYDYWGQGTQVTVSS | low polyreactivity |
| QVQLVESGGGIVQAGGSLRLSCAASGSIFTHYAMGWDRQAPGKERELVATISSTGSTDYADSVKGRFTISRDNAKNTVFLQINSLKPEDTAVYYCAAVSFYKTRATYYFWYDYWGQGTQVTVSS | low polyreactivity |
| QVQLVESGGGLVQAGGSLRLSCAASGFTFEKYSMGWYRQAPGKERELVAAITQSAGSTYADSVKGRFTISRDNAKNTVYLQMISLKPEDTAVYYFAARYRYPYYARYGYWGQGTQVTVSS | high polyreactivity |
| QVQLVESGGGLVQAGGSLRLSCAASGSIFSSNAMGWYIQAPGKERELVAAITYSGGSTYYADSVKGRFTISRDNAKNTVYLQMNSLKPEDTAVYYCAADNGNWYDGYSYDYWGQGTQVTVSS | low polyreactivity |
| QVQLVESGGGLVQAGGSLRLSCAPSGRIFTHNVRGWYRQAPGKERELVAAISASGGSTYYADSVKGRFTISRDNAKNTVYLQMNSLKPEDTAVYYCNAEWAVRYPGYDYWGQGTQVTVSS | low polyreactivity |
| QVQLVESGGGLVQAGGSLRLSCAASGFTLDWYVMGWYRQAPGKDRELVAAISSSGGRTYYADSVKGRFTISRDNAKNTVYLQMNSLKPEDTAVYYCAARNKYGGYPYGYDYWGQGTQVTVSS | high polyreactivity |
| QVQLVESGGGLVQAGGSLRLSCAASGSTFGTNVMGWYRQAPGKERELVAAISRRGSSTYYADSVKGRFTISRDNAKNTVYLQMNSLKPEDTAVYYCAARVYPSAAMDSWGQGTQVTVSS | high polyreactivity |
| QVQLVESGGGLVQARGSLRLSCAASGFILTYYAMGRYRQAPGKEMELVATISSGGGSTYYADSVKGRFTISRDNAKNTVYLQMNSLKPEDTAVYFCAASRRMTGIRYINRYEYWGQGTQVTVSS | high polyreactivity |

| Sequence | polyreactivity (PSR sort gate) |
| --- | --- |
| QVQLVESGGGLVQAGGSLRLSCAASGLIFDSYAMGWDRQAPRKERELVAAITYTGGSTYYADSVKGRFTISRDNAKNSVYLQMNSLKPEDTAVYYCAARRQRERYGYWGQGTQVTVSS | high polyreactivity |
| QVQLVESGGGLVQAGGSLRLSCAASGRTFRLYAMGWYRQAPGKERELVAAISYSDGRTYYADSVKGRFTISRDNAKNTVYLQMNSLKPEDTAVYYCAAETLYVSPYFYVVQYDYWGQGTQVTVSS | high polyreactivity |
| QVQLVESGGGLVQAGGSLRLSCAASGRIFGLNAMGWYRQAPGKERELVAAITGSVGSTYYADSVKGRFTISRDNAKNTVYLQMNSLKPEDTAVYYCNAEYDSRRSSYYRHFNYWGQGTQVTVSS | low polyreactivity |
| QVQLVESGGGLVQAGGSLRLSCAASGYIFAYTAMGWYRQAPGKEREFVAVITRSDDSTYADSVKGRFTISRDNAKNTVYLQMNSLKPEDTAVYYCAAQPFVIDGGYRGDYWGQGTQVTVSS | low polyreactivity |
| QVQLVESGGGLVQAGGSLRLSCAASGIIFGKNAMGWYRQAPGKERELVAAISRRGGGTYYADSVKGRFTISRDNAKNTVYLQMNSLKPEDTAVYYCAVKVGYVRLLYHYYYWGQGTQVTVSS | high polyreactivity |
| QVQLVESGGGLVQAGGSLRLSCAASGSIFVYYTMGWYRQAPGKERELVAAISFSGGSTYADSVKGRFTISRDNAKNTVYLQMNSLKPEDTAVYFCNADRWLYTPSKFVEMDYWGQGTQVTVSS | low polyreactivity |
| QEQLVESGGGLDQAGGSLRLICDASGFTFLGYAMGWYRQAPGKERELVAAITSGGRTNYADSVKGRFTISRDNAKNTVYLQMNSLKPEDTAVYYCAAYRWDYYYWGQGTQVTVSS | high polyreactivity |
| QVQLVESGGGLVQAGGSLRLSCAASGSTFSYNAMGWYRQAPGKERELVAAISRSGGSTYYADSVKGRFTISRDNAKNTVYLQIKSLKPEFTAVYYFAADSPYGYYEGDYWGQGTQVTVSS | low polyreactivity |
| QVQLVESGGGLVQAGGSLRLSCAASGYILGVYAMGWYRQAPGKERDLVASISRSGGSTYYADSVKGRFTISRDNAKNTVYLQMNSLKTEDSAVYYCSNRSRTAHFRLRYDYWGQGTQVTVSS | low polyreactivity |
| QVQLVESGGGLVQAGGSLRLSCAASGSTFGIYPMAGNRTEPGKERELVAAISSGGSTNYADSVKGRFTISRDNAKNSVYLQMNSLNPEDTAVYYCAVESVYEYGGYVDSAYDYWGQGTQVTVSS | low polyreactivity |
| QVQLHESGGGLVQAGGSLLSCAASGTISYYREMGWYRQAPGKERELVAGIGVGTITYYADSVKGRFTISRDNAKNTVYLHMNSLKPEDTAVYYCAAHFDGNDSHAYWGQGTQVTVSS | low polyreactivity |
| QVQLVESGGGLVQAGGSLRLSCAASGRTFSYYAMGWYRQAPGKERELVATISWSGSTYYADSVKGRFTLSRDNAKNTVYLQMNSLKPEDTAVYYCAARYRYAGWYSVWYDYWGQGTQVSVSS | high polyreactivity |
| QVQLVESGGGLVQAGGSLRLSCAASGRIFNFYAMGWYRQAPGKERELVASITSGGRTSYADSVKGRFTISRDNAKNTVYLQMNSLKPEDTAVYYCAAKSPLKTYYFTSFRYYYWGQGTQVTVSS | high polyreactivity |
| QVQLVESGGGLVQAGGSLRLSCAASGSTFSNYAMGWYRQAPGKERELVASISNGGSTNYADSVKGRFTISRDNAKNNVYLQMNSLKPEDTAVYYCNAESKAKYDYWGQGTQVTVSS | low polyreactivity |
| QVQLVESGGGLVQAGGSLRLSCAASGITFCDNTMGWYRQAPGKERELVAAITYSSTSTYYADSVKGRFTISRDNAKNTVYLQMNSLKTEDTAVYYCAAEGPGDVVSTDYDFWGQGTQVTVSS | low polyreactivity |
| QVQLVESGGGLVQAGGSLRLSCAASGGIFAYNVMGWYRQAPGKERELVAAISSAGSTYYADSVKGRFTISRDNAKNTVYLQMNSLKPEDTAVYYCAVRIGLKYDYWGQGTQVTVSS | low polyreactivity |
| QVQLVESGGGLVQAGGSLRLSCAPSGFIFIRYAMGWYRQAPGKERELVASISWRGESTYYADSVKWRFTISRDNAKNTVYLQRNILKPEDTAVYYCAATGINSGPGRMDYWGQGTQVTVSS | high polyreactivity |
| QVQLVESGGGLVQAGGSLRLSCAASGSTFSQYAMGWYRQAPWKERELVAAITSTGGSTYYADSVKGRFTISRDNAKNTVYLQMNSLKPEDTAVYYCYPYIRDPKYNYWGQATQVTVSS | low polyreactivity |
| QVQLVESGGGLVQAGGSLRLSCAASGLIFTYYAMGWYRQAPGKERELVAAINWSGGSTYYADSVKGRFTISRDNAKNTVYLQMNSLKPEDTAVYYCAAAYANYRFYYWGQGTQVTVSS | high polyreactivity |
| QVQLVESGGGLVQAGGSIRLSCAASGFTFDQYAMGWYRQAPGKERELVAAISSGTRTYYADSVKGRFTISRDNAKNTVYLQMNSLKPEDTAVYYCIARSVRYRDLYDYWGQGTQVTVSS | low polyreactivity |
| QVQLVESGGGLVQAGGSLRLSCAASGSTFYTYAMGWYRQAPGKERELVATISRGGGRTYYADSVKGRFTISRDNAKNTVYLQMNSLKPEDTAVYYCAARLYSSSYNSEQYYYWGQGTQVTVSS | high polyreactivity |
